Data published in patent US20200385479A1 (LYVGEN BIOPHARMA, published 2020).

Experiments:
[1] = molecular target: T1, human CD137-His tag protein; test: ELISA, plate coated with human CD137-His at 1 ug/ml, anti-human IgG-HRP, A450
T1 construct: It differs from the cell-surface CD137 and the Octet antigen; also called Sino Biological Inc. Cat #10377-H08H-100; not shown: C-terminal His tag of the vendor's product (Sino Biological Cat #10377-H08H-100)
Experimental: CD137 protein (human CD137-His tag protein (Sino Biological Inc. Cat #10377-H08H-100) or rhesus monkey CD137-His (Sino Biological Inc. Cat #90305-K08H-100)) was diluted in PBS to 1 ug/ml and used to coat an ELISA plate (Corning, Cat #9018, high binding) at a concentration of 50 ul/well. The plate was incubated overnight at 4° C. The plate was then decanted and washed with PBS-T, and 200 ul/well assay diluent (1×PBS/1% BSA/0.05% Tween-20/0.05% proclin 300) was added. After a 3 hour incubation at room temperature, the plate was washed with PBS-T three times. The testing antibodies were diluted in assay diluent to 0, 0.000003, 0.00003, 0.0003, 0.003, 0.03, and 0.3 ug/ml or approximately 0, 0.00002, 0.0002, 0.002, 0.02, 0.2 and 2 nM and then added to the plate (50 ul/well). The plate was incubated for one hour at 37° C. and then washed three times with PBS-T. Anti-human IgG-HRP conjugate (Bethyl Cat #A80-319P) at a 1:10,000 dilution was added to the plate (100 ul/well). The plate was incubated for 0.5 hour at 37° C., followed by washing with PBS-T three times. The TMB substrate solution was added (100 ul/well). The color was allowed to develop for 8 minutes before it was stopped with 100 ul/well 2N H₂SO₄. Absorbance at 450 nm was determined with an ELISA reader.

[2] = molecular target: T2, CD137 antigen (Octet antigen binding assay) (UniProt Q07011 24-186, limits assumed); test: BLI, Octet Red 96, antibody on anti-human Fc (AHC) biosensors, 1:1 model
T2 construct: also called 4-1BB; TNFRSF9
Experimental: The chimeric antibodies were tested in an antigen binding assay on Octet Red 96 to estimate binding kinetics. Antibodies were loaded onto anti-human Fc (AHC) biosensors. Loaded sensors were dipped into a serial dilution of each […] (300 nM, 1:3 down, 7 points) in assay buffer (PBS with 0.1% BSA, 0.02% Tween-20 (pH 7.2)).

T1 sequence (chain, as listed by the source limits assumed): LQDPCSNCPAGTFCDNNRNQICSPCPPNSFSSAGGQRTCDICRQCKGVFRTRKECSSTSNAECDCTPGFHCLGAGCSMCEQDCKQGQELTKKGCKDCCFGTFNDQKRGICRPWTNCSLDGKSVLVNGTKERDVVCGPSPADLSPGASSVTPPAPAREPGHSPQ

| Binder | EC50 (read off the curve) [1] [nM] | Kd [2] [nM] | koff [2] [s⁻¹] | kon [2] [M⁻¹ s⁻¹] | binding result [1] |
| --- | --- | --- | --- | --- | --- |
| LYV370 (20A12-IgG4) (antibody, V domains shown, Chimeric antibody: hybridoma variable domains on human IgG4 constant region with hinge S228P (EU numbering) and human kappa constant region; S228P is already in the full chain entry; also called 20A12 in human IgG4SP / human kappa) VH: QIQLVQSGPELKKPGETVKISCKASGYTFTTYGMSWVKQAPGKGLKWMGWINTYSGVPTYADDFKGRFAFSLETSASTAYLQINNLKNEDMAIYFCARGYGSPDYWGQGTTLTVSS VL: QIVLTQSPAIMSASPGEKVTMTCSASSSVSYMNWYQQKSGTSPKRWIFDTSKLASGVPARFSGSGSGTSYSLTISSMEAEDAATYYCQQWSGNPPISTFGSGTKLEIKR |  | 5.7 | 0.001 | 180000 | binds |
| LYV390 (30C11-IgG4) (antibody, V domains shown, Chimeric antibody, human IgG4 S228P / human kappa; also called 30C11 in hG4SP / human kappa) VH: QIQLVQSGPELKKPGESVKISCKASGYTFTDYAMHWVKQAPGKALKWMGLINTYTGKPTYVDDLKGRFVFSLEASASTAKLQISNLKNEDTAIYFCARYYHDGTYYGWFANWGQGTLVTVSS VL: DTVLTQSPALAVSPGERVTVSCGATESVSTALNWYQQKPGQQPRLLIYGASNLESGVPARFSGSGSGTDFTLSIDPVEADDTATYFCQQTWNDPLTFGSGTKLEIKR | ~0.04 | 5.3 | 0.0014 | 260000 |  |
| LYV372 (23D2-IgG4) (antibody, V domains shown, Chimeric antibody, human IgG4 S228P / human kappa; also called 23D2 in human IgG4S; 23D2b in human Kappa) VH: QVQLQQSGAELVRPGSSVKISCKASGYAFSIYWMNWVKQRPGQGLEWIGQIYPGDGYTNYNGKFKGKATLTADKSSSTAYMQLSSLTSEDSAVYFCARGQLGLDGYWGQGTTLTVSS VL: QIVLTQSPTIMSASPGEKVTMTCSASSSVSYIYWYQQKPGSSPRLLIYDTSNLASGVPVRFSGSGSGTSYSLTISRMEAEDAATYYCQQWNIYPYTFGGGTKLEIKR |  | 5.8 | 0.0016 | 280000 |  |
| LYV375 (22F2-IgG4) (antibody, V domains shown, Chimeric antibody, human IgG4 S228P / human kappa; also called 22F2 in human IgG4SP / human Kappa) VH: EVKLVESGAELVRPGSSVKISCKASGYAFSLYWMNWVKQRPGQGLEWIGQIYPGDGYTNYNGKFKGKATLTADKSSSTAYMQLSSLTSEDSAVYFCARGQLGLDGYWGQGTTLTVSS VL: QIVLTQSPAIMSASPGEKVTMTCSASSSVSYIYWYQQKPGSSPRLLIYDTSNLASGVPVRFSGSGSGTSYSLTISRMEAEDAATYYCQQWNIYPYTFGGGTKLEIKR | 0.01 to 0.02 | 8.2 | 0.0023 | 280000 |  |

The remaining binders from weak to strong by Kd [2], led by results:

| EC50 (read off the curve) [1] [nM] | Kd [2] [nM] | koff [2] [s⁻¹] | kon [2] [M⁻¹ s⁻¹] | binding result [1] | Binder |
| --- | --- | --- | --- | --- | --- |
|  | 3.8 | 0.0011 | 280000 |  | LYV371 (11E10-IgG4) (antibody, V domains shown, Chimeric antibody, human IgG4 S228P / human kappa; also called 11E10 in human IgG4SP / human Kappa) VH: QVQLQQSGAELVRPGASVTLSCKASGYTFAGFEMHWIKQTPVHGLGWIGAIDPKTGGTDYNQKFKDKALLTADKSSNTAYMELRSLTSEDSAVYYCTRDLGYFDVWGTGTTVTVSS VL: DIQMTQTTSSLSASLGDRVTISCRASQDIRSNLNWYQQKPDGTVKLLIYYTSRLHSGVPSRFSGSGSGTDYSLTISNLEQEDIATYFCQQSEKLPRTFGGGTKLEIRR |
| ~0.005 | 2.1 | 0.00034 | 160000 |  | LYV402 (26B3-IgG4) (antibody, V domains shown, Chimeric antibody, human IgG4 S228P / human kappa; also called 26B3b in hG4SP / human kappa) VH: EVKLLESGGGLVQPGGSLKLSCAASGFDFSRYWMSWVRQAPGKGLEWIGEINPDSNPINYTPSLKDKFIISRDNAKNTLYLQMSKVRSEDTALYYCARDGSSSRYFDVWGAGTTVTVSS VL: DIVMTQSPATLSVTPGDRVSLSCRASQSISDYLHWYQQKSHESPRLLIKYVSQSISGIPSRFSGSGSGSDFTLSINSVEPEDVGVYYCQNGHSFPPTFGGGTKLEIKR |
